Paper doi:10.1101/666776
pKd: −log10 of the molar value.

Tested on: Cascade/I-C (Cas5, Cas8c, Cas7 with crRNA) (Bacillus halodurans C-125)
Assay: EMSA?

Sequence: TACTTCCAATCCAATGCAGGTACCATCGAAAGTAACTCCATCCATAACTAAGCAACCTGTACTAGTAATCGAAAGCTTTTATCCACTTCCAATGTTATTA (double strand) [100 bp target, TTC PAM]
- pKd: 6.83
